Results: ChEMBL document CHEMBL1142227, “Structural basis for the high all-trans-retinaldehyde reductase activity of the tumor marker AKR1B10” (Proc Natl Acad Sci U S A, 2007)

Key:
[1] = system: CC1=C(/C=C/C(C)=C/C=C/C(C)=C/C=O)C(C)(C)CCC1; assay: (§1) Activity of human AKR1B10 K125L/V301L mutant by BSA/HPLC method
[2] = system: O=CC(O)CO; assay: as §1
[3] = system: CC1=C(/C=C/C(C)=C/C=C/C(C)=C/C=O)C(C)(C)CCC1; assay: (§2) Ratio of Kcat to Km for human AKR1B10 K125L/V301L mutant
[4] = system: O=CC(O)CO; assay: as §2
[5] = system: CC1=C(/C=C/C(C)=C/C=C/C(C)=C/C=O)C(C)(C)CCC1; assay: (§3) Activity of human wild type AKR1B10 by BSA/HPLC method
[6] = system: CC1=C(/C=C/C(C)=C\C=C\C(C)=C\C=O)C(C)(C)CCC1; assay: as §3
[7] = system: O=CC(O)CO; assay: as §3
[8] = system: CC1=C(/C=C/C(C)=C/C=C/C(C)=C/C=O)C(C)(C)CCC1; assay: (§4) Ratio of Kcat to Km for human wild type AKR1B10
[9] = system: CC1=C(/C=C/C(C)=C\C=C\C(C)=C\C=O)C(C)(C)CCC1; assay: as §4
[10] = system: O=CC(O)CO; assay: as §4
[11] = system: CC1=C(/C=C/C(C)=C/C=C/C(C)=C/C=O)C(C)(C)CCC1; assay: (§5) Activity of human wild type AKR1B10 by Tween 80 / spectrophotometer method
[12] = system: CC1=C(/C=C/C(C)=C/C=C/C(C)=C/C=O)C(C)(C)C[C@@H](O)C1; assay: as §5
[13] = system: CC1=C(/C=C/C(C)=C/C=C/C(C)=C/C=O)C(C)(C)CCC1; assay: (§6) Activity of human AKR1B1 by BSA/HPLC method
[14] = system: CC1=C(/C=C/C(C)=C\C=C\C(C)=C\C=O)C(C)(C)CCC1; assay: as §6
[15] = system: O=CC(O)CO; assay: as §6
[16] = system: CC1=C(/C=C/C(C)=C/C=C/C(C)=C/C=O)C(C)(C)CCC1; assay: (§7) Ratio of Kcat to Km for human AKR1B1
[17] = system: CC1=C(/C=C/C(C)=C\C=C\C(C)=C\C=O)C(C)(C)CCC1; assay: as §7
[18] = system: O=CC(O)CO; assay: as §7
[19] = system: CC1=C(/C=C/C(C)=C/C=C/C(C)=C/C=O)C(C)(C)CCC1; assay: (§8) Activity of human AKR1B1 by Tween 80 / spectrophotometer method
[20] = system: CC1=C(/C=C/C(C)=C/C=C/C(C)=C/C=O)C(C)(C)C[C@@H](O)C1; assay: as §8
[21] = system: CC1=C(/C=C/C(C)=C/C=C/C(C)=C/C=O)C(C)(C)CCC1; assay: (§9) Activity of human AKR1B10 K125L mutant by BSA/HPLC method
[22] = system: CC1=C(/C=C/C(C)=C\C=C\C(C)=C\C=O)C(C)(C)CCC1; assay: as §9
[23] = system: O=CC(O)CO; assay: as §9
[24] = system: CC1=C(/C=C/C(C)=C/C=C/C(C)=C/C=O)C(C)(C)CCC1; assay: (§10) Ratio of Kcat to Km for human AKR1B10 K125L mutant
[25] = system: CC1=C(/C=C/C(C)=C\C=C\C(C)=C\C=O)C(C)(C)CCC1; assay: as §10
[26] = system: O=CC(O)CO; assay: as §10
[27] = system: CC1=C(/C=C/C(C)=C/C=C/C(C)=C/C=O)C(C)(C)CCC1; assay: (§11) Activity of human AKR1B10 K125L mutant by Tween 80 / spectrophotometer method
[28] = system: CC1=C(/C=C/C(C)=C/C=C/C(C)=C/C=O)C(C)(C)C[C@@H](O)C1; assay: as §11
[29] = target: Aldo-keto reductase family 1 member B10 (Homo sapiens) (UniProt O60218); assay: Inhibition of retinaldehyde reductase activity of human AKR1B10 expressed in COS7 cells at 1 uM relative to control; format: cell-based; design: scale not given: the % may be the effect or the level left; details: COS-7
Sequence of Aldo-keto reductase family 1 member B10 (Homo sapiens) (O60218 whole entry, looked up): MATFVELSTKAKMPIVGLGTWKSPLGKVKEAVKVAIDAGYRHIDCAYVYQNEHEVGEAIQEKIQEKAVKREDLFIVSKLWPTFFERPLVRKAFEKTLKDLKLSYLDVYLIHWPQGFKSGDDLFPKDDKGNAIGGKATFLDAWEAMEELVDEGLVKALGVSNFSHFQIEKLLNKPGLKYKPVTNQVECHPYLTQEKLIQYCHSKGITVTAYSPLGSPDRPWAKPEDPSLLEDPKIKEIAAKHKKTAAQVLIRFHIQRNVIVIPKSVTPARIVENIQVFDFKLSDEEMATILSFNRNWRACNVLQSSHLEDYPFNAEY

[30] = system: CC1=C(/C=C/C(C)=C/C=C/C(C)=C/C=O)C(C)(C)CCC1; assay: (§12) Activity of human AKR1B10 V301L mutant by BSA/HPLC method
[31] = system: CC1=C(/C=C/C(C)=C\C=C\C(C)=C\C=O)C(C)(C)CCC1; assay: as §12
[32] = system: O=CC(O)CO; assay: as §12
[33] = system: CC1=C(/C=C/C(C)=C/C=C/C(C)=C/C=O)C(C)(C)CCC1; assay: (§13) Ratio of Kcat to Km for human AKR1B10 V301L mutant
[34] = system: CC1=C(/C=C/C(C)=C\C=C\C(C)=C\C=O)C(C)(C)CCC1; assay: as §13
[35] = system: O=CC(O)CO; assay: as §13

Sequence of Aldo-keto reductase family 1 member B10 (Homo sapiens), O60218 V301L (O60218 whole entry V301L): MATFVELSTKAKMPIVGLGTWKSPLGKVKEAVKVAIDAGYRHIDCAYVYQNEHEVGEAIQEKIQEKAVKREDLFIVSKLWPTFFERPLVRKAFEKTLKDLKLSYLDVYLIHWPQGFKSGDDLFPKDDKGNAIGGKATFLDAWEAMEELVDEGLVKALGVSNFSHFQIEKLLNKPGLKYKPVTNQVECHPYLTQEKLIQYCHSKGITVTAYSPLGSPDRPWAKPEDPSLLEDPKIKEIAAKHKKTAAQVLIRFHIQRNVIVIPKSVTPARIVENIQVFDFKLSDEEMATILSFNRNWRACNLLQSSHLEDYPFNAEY
Sequence of Aldo-keto reductase family 1 member B10 (Homo sapiens), O60218 K125L,V301L (O60218 whole entry K125L/V301L): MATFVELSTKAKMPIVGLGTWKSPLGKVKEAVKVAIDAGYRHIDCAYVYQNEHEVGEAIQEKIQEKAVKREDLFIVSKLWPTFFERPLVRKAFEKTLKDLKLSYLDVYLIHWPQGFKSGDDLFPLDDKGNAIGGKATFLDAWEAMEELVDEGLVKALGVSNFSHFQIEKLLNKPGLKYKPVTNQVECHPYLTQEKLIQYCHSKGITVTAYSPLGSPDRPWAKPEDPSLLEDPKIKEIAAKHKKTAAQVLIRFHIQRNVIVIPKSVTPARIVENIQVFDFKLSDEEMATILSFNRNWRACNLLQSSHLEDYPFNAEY
Sequence of Aldo-keto reductase family 1 member B10 (Homo sapiens), O60218 K125L (O60218 whole entry K125L): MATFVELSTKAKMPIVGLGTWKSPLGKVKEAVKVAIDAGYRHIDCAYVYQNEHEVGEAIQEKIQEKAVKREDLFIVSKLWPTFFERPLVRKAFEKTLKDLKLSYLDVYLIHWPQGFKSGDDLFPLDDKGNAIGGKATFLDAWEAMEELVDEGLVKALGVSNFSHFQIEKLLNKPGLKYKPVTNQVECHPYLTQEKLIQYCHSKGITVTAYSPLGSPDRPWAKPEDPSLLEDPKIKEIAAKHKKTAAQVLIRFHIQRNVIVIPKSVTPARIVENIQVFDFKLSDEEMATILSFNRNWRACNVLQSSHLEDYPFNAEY
Sequence of Aldo-keto reductase family 1 member B10 (Homo sapiens), O60218 (O60218 whole entry): as the sequence (O60218 whole entry, looked up) above

## Aldo-keto reductase family 1 member B10 (Homo sapiens), O60218 K125L,V301L
[1]
  Km: 1 µM
  kcat: 0.0583 s⁻¹
[2]
  Km: 7300 µM
  kcat: 0.59 s⁻¹
[3]
  kcat/Km: 58300 M⁻¹ s⁻¹
[4]
  kcat/Km: 81.7 M⁻¹ s⁻¹

## Aldo-keto reductase family 1 member B10 (Homo sapiens), O60218
[5]
  Km: 0.6 µM
  kcat: 0.45 s⁻¹
[6]
  Km: 0.7 µM
  kcat: 0.015 s⁻¹
[7]
  Km: 6000 µM
  kcat: 0.583 s⁻¹
[8]
  kcat/Km: 750000 M⁻¹ s⁻¹
[9]
  kcat/Km: 21700 M⁻¹ s⁻¹
[10]
  kcat/Km: 100 M⁻¹ s⁻¹
[11]
  kcat: 0.297 s⁻¹
[12]
  kcat: 0.288 s⁻¹

## Aldo-keto reductase family 1 member B1 (Homo sapiens) (from UniProt P15121)
[13]
  Km: 1.1 µM
  kcat: 0.00583 s⁻¹
[14]
  Km: 0.4 µM
  kcat: 0.0117 s⁻¹
[15]
  Km: 50 µM
  kcat: 0.517 s⁻¹
[16]
  kcat/Km: 5330 M⁻¹ s⁻¹
[17]
  kcat/Km: 25000 M⁻¹ s⁻¹
[18]
  kcat/Km: 11000 M⁻¹ s⁻¹
[19]
  kcat: 0.00617 s⁻¹
[20]
  kcat: 0.0967 s⁻¹

## Aldo-keto reductase family 1 member B10 (Homo sapiens), O60218 K125L
[21]
  Km: 0.15 µM
  kcat: 0.0333 s⁻¹
[22]
  Km: 0.7 µM
  kcat: 0.015 s⁻¹
[23]
  Km: 5200 µM
  kcat: 0.593 s⁻¹
[24]
  kcat/Km: 218000 M⁻¹ s⁻¹
[25]
  kcat/Km: 21700 M⁻¹ s⁻¹
[26]
  kcat/Km: 117 M⁻¹ s⁻¹
[27]
  kcat: 0.0733 s⁻¹
[28]
  kcat: 0.308 s⁻¹

## COc1ccc2c(C(=S)N(C)CC(=O)O)cccc2c1C(F)(F)F
[29]
  Activity: 50%

## Aldo-keto reductase family 1 member B10 (Homo sapiens), O60218 V301L
[30]
  Km: 0.6 µM
  kcat: 0.128 s⁻¹
[31]
  Km: 0.3 µM
  kcat: 0.01 s⁻¹
[32]
  Km: 6000 µM
  kcat: 0.683 s⁻¹
[33]
  kcat/Km: 212000 M⁻¹ s⁻¹
[34]
  kcat/Km: 30000 M⁻¹ s⁻¹
[35]
  kcat/Km: 117 M⁻¹ s⁻¹
